# [1] = ESCC patients, 3 mg/kg Q2W, n = 59
# Description: The anti-PD-1 antibody dose groups for this study: 3 mg/kg dose group at first. After enrollment, subjects will receive treatment every 2 weeks (Q2W) for a 4-week cycle, until disease progression, onset of intolerable toxicity, withdrawal of consent by the subject, no further benefit at the discretion of the investigator, or death.
# The planned dose was 3 mg/kg, Q2W.
substance,measurement,setting,value
toripalimab: humanized IgG4 anti-PD-1 mAb comprising light and heavy chain amino acid sequences set forth in SEQ ID NOs: 9 and 10 (WO2014206107),Common TRAE: ALT elevation,59 ESCC patients,11.9%
same,Common TRAE: AST elevation,59 ESCC patients,13.6%
same,Common TRAE: anemia,59 ESCC patients,18.6%
same,Common TRAE: constipation,59 ESCC patients,10.2%
same,Common TRAE: cough,59 ESCC patients,16.9%
same,Common TRAE: fatigue,59 ESCC patients,11.9%
same,Common TRAE: fever,59 ESCC patients,16.9%
same,Common TRAE: hypothyroidism,59 ESCC patients,13.6%
same,Common TRAE: leukopenia,59 ESCC patients,15.3%
same,Common TRAE: loss of appetite,59 ESCC patients,18.6%
same,Common TRAE: low hemoglobin counts,59 ESCC patients,10.2%
same,Common TRAE: nausea,59 ESCC patients,11.9%
same,Common TRAE: total bilirubin increase,59 ESCC patients,10.2%
same,Common TRAE: weight loss,59 ESCC patients,18.6%
same,Grade 3 TRAE: anemia,59 ESCC patients,2 cases
same,Grade 3 TRAE: anorexia,59 ESCC patients,1 case
same,Grade 3 TRAE: dysphagia,59 ESCC patients,1 case
same,Grade 3 TRAE: esophageal stenosis,59 ESCC patients,1 case
same,Grade 3 TRAE: fatigue,59 ESCC patients,1 case
same,Grade 3 TRAE: hydrocardia,59 ESCC patients,1 case
same,Grade 3 TRAE: hypercalcemia,59 ESCC patients,1 case
same,Grade 3 TRAE: hypertension,59 ESCC patients,1 case
same,Grade 3 TRAE: hyponatremia,59 ESCC patients,2 cases
same,Grade 3 TRAE: leukopenia,59 ESCC patients,1 case
same,Grade 3 TRAE: neck infection,59 ESCC patients,1 case
same,Grade 3 TRAE: upper respiratory infection,59 ESCC patients,1 case
same,Grade 4 TRAE: hyperuricemia,59 ESCC patients,1 case
same,Grade 4 TRAE: paraplegia,59 ESCC patients,1 case
same,Patients permanently discontinued due to TRAE,59 ESCC patients,23.7%
same,Patients with Grade 3 and higher TRAEs,59 ESCC patients,32.2%
same,Patients with Grade 4 TRAEs,59 ESCC patients,3.4%
same,Patients with dose discontinuation due to TRAE,59 ESCC patients,10.2%
same,Patients with grade 3 TRAEs,59 ESCC patients,18.6%
same,Safety in ESCC patients (conclusion),59 ESCC patients,controlled safety
same,Treatment-related death: cachexia,59 ESCC patients,1 case
same,Treatment-related death: pneumonia,59 ESCC patients,2 cases
same,Treatment-related death: unknown etiology,59 ESCC patients,3 cases
same,Patients with treatment-related adverse events (TRAEs),"59 ESCC patients, as of Dec. 31, 2018",94.9%
same,Treatment-related deaths,"59 ESCC patients, likely unrelated to the treatment",six
same,"ALT elevation, Level 1",[1],7 (11.9) n (%)
same,"ALT elevation, Level 2",[1],0 n (%)
same,"ALT elevation, Level 3",[1],0 n (%)
same,"ALT elevation, Level 4",[1],0 n (%)
same,"ALT elevation, Level 5",[1],0 n (%)
same,"ALT elevation, Total",[1],7 (11.9) n (%)
same,"AST elevation, Level 1",[1],8 (13.6) n (%)
same,"AST elevation, Level 2",[1],0 n (%)
same,"AST elevation, Level 3",[1],0 n (%)
same,"AST elevation, Level 4",[1],0 n (%)
same,"AST elevation, Level 5",[1],0 n (%)
same,"AST elevation, Total",[1],8 (13.6) n (%)
same,"Anemia, Level 1",[1],6 (10.2) n (%)
same,"Anemia, Level 2",[1],2 (3.4) n (%)
same,"Anemia, Level 3",[1],3 (5.1) n (%)
same,"Anemia, Level 4",[1],0 n (%)
same,"Anemia, Level 5",[1],0 n (%)
same,"Anemia, Total",[1],11 (18.6) n (%)
same,"Constipation, Level 1",[1],5 (8.5) n (%)
same,"Constipation, Level 2",[1],1 (1.7) n (%)
same,"Constipation, Level 3",[1],0 n (%)
same,"Constipation, Level 4",[1],0 n (%)
same,"Constipation, Level 5",[1],0 n (%)
same,"Constipation, Total",[1],6 (10.2) n (%)
same,"Cough, Level 1",[1],6 (10.2) n (%)
same,"Cough, Level 2",[1],4 (6.8) n (%)
same,"Cough, Level 3",[1],0 n (%)
same,"Cough, Level 4",[1],0 n (%)
same,"Cough, Level 5",[1],0 n (%)
same,"Cough, Total",[1],10 (16.9) n (%)
same,"Fatigue, Level 1",[1],6 (10.2) n (%)
same,"Fatigue, Level 2",[1],1 (1.7) n (%)
same,"Fatigue, Level 3",[1],0 n (%)
same,"Fatigue, Level 4",[1],0 n (%)
same,"Fatigue, Level 5",[1],0 n (%)
same,"Fatigue, Total",[1],7 (11.9) n (%)
same,"Fever, Level 1",[1],8 (13.3) n (%)
same,"Fever, Level 2",[1],2 (3.4) n (%)
same,"Fever, Level 3",[1],0 n (%)
same,"Fever, Level 4",[1],0 n (%)
same,"Fever, Level 5",[1],0 n (%)
same,"Fever, Total",[1],10 (16.9) n (%)
same,"Hypothyroidism, Level 1",[1],5 (8.5) n (%)
same,"Hypothyroidism, Level 2",[1],3 (5.1) n (%)
same,"Hypothyroidism, Level 3",[1],0 n (%)
same,"Hypothyroidism, Level 4",[1],0 n (%)
same,"Hypothyroidism, Level 5",[1],0 n (%)
same,"Hypothyroidism, Total",[1],8 (13.6) n (%)
same,"Leukopenia, Level 1",[1],6 (10.2) n (%)
same,"Leukopenia, Level 2",[1],3 (5.1) n (%)
same,"Leukopenia, Level 3",[1],0 n (%)
same,"Leukopenia, Level 4",[1],0 n (%)
same,"Leukopenia, Level 5",[1],0 n (%)
same,"Leukopenia, Total",[1],9 (15.3) n (%)
same,"Loss of appetite, Level 1",[1],6 (10.2) n (%)
same,"Loss of appetite, Level 2",[1],4 (6.8) n (%)
same,"Loss of appetite, Level 3",[1],1 (1.7) n (%)
same,"Loss of appetite, Level 4",[1],0 n (%)
same,"Loss of appetite, Level 5",[1],0 n (%)
same,"Loss of appetite, Total",[1],11 (18.6) n (%)
same,"Low hemoglobin counts, Level 1",[1],3 (5.1) n (%)
same,"Low hemoglobin counts, Level 2",[1],3 (5.1) n (%)
same,"Low hemoglobin counts, Level 3",[1],0 n (%)
same,"Low hemoglobin counts, Level 4",[1],0 n (%)
same,"Low hemoglobin counts, Level 5",[1],0 n (%)
same,"Low hemoglobin counts, Total",[1],6 (10.2) n (%)
same,"Nausea, Level 1",[1],5 (8.5) n (%)
same,"Nausea, Level 2",[1],2 (3.4) n (%)
same,"Nausea, Level 3",[1],0 n (%)
same,"Nausea, Level 4",[1],0 n (%)
same,"Nausea, Level 5",[1],0 n (%)
same,"Nausea, Total",[1],7 (11.9) n (%)
same,"Total bilirubin increase, Level 1",[1],6 (10.2) n (%)
same,"Total bilirubin increase, Level 2",[1],0 n (%)
same,"Total bilirubin increase, Level 3",[1],0 n (%)
same,"Total bilirubin increase, Level 4",[1],0 n (%)
same,"Total bilirubin increase, Level 5",[1],0 n (%)
same,"Total bilirubin increase, Total",[1],6 (10.2) n (%)
same,"Treatment-related adverse events, Level 1",[1],13 (22.0) n (%)
same,"Treatment-related adverse events, Level 2",[1],24 (40.7) n (%)
same,"Treatment-related adverse events, Level 3",[1],11 (18.6) n (%)
same,"Treatment-related adverse events, Level 4",[1],2 (3.4) n (%)
same,"Treatment-related adverse events, Level 5",[1],6 (10.2) n (%)
same,"Treatment-related adverse events, Total",[1],56 (94.9) n (%)
same,"Weight loss, Level 1",[1],8 (13.6) n (%)
same,"Weight loss, Level 2",[1],3 (5.1) n (%)
same,"Weight loss, Level 3",[1],0 n (%)
same,"Weight loss, Level 4",[1],0 n (%)
same,"Weight loss, Level 5",[1],0 n (%)
same,"Weight loss, Total",[1],11 (18.6) n (%)

# From patent US20220154296A1, “USE OF ANTI-PD-1 ANTIBODY IN PREPARATION OF MEDICAMENT FOR TREATING SOLID TUMORS” (Shanghai Junshi Biosciences Co., Ltd., priority 2019, published 2022)
